Numbered stars: 1 amine (or outer) side, 2 acyl side, 3 side chain; on linkers, the order of the positions; unused ones are H or OH. Bridge positions count the residues as written; N and C are the ends. Side chains are listed from the residue outwards. Ends that are not written are not given here. * marks the point of attachment. C20 diacid = O=C(O)CCCCCCCCCCCCCCCCCCC(=O)*; γGlu = O=C(O)[C@H](CCC(=O)[*:2])N[*:1]; AEEA = NCCOCCOCC(=O)O
Tests used:
[1] = target: T1, rat amylin receptor (rat calcitonin receptor + rat RAMP 3) (rat, UniProt P32214 25-516; Q9JJ73 23-147); assay: SPA competition with 125I-rat amylin, membranes of BHK cells with rat calcitonin receptor + rat RAMP3 (Assay VI)
T1 construct: whole, on cells; also called rAmylin-R; rat amylin 3(a) receptor
T1 sequence (looked up) 1: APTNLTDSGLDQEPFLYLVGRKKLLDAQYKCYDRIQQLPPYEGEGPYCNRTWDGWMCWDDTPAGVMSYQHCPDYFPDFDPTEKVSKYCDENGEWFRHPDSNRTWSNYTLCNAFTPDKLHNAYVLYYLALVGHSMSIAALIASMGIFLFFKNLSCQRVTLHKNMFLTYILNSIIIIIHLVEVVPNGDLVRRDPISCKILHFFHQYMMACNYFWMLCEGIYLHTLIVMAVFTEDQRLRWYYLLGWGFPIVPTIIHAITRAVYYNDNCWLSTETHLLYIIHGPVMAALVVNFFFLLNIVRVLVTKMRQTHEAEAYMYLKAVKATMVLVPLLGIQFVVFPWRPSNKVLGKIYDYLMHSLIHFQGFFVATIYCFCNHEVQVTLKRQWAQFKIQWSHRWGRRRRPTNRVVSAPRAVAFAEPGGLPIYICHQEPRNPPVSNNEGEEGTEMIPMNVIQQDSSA
T1 sequence (looked up) 2: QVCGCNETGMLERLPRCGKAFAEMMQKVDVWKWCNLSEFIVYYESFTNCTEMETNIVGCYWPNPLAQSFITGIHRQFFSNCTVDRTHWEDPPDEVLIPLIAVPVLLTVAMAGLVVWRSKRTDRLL

[2] = target: T2, rat calcitonin receptor (rat, UniProt P32214 25-516); assay: ratio of binding IC50s: rat calcitonin receptor over rat amylin receptor (reference)
T2 construct: whole, on cells; also called rCTR; rat calcitonin (a) receptor
T2 sequence (looked up): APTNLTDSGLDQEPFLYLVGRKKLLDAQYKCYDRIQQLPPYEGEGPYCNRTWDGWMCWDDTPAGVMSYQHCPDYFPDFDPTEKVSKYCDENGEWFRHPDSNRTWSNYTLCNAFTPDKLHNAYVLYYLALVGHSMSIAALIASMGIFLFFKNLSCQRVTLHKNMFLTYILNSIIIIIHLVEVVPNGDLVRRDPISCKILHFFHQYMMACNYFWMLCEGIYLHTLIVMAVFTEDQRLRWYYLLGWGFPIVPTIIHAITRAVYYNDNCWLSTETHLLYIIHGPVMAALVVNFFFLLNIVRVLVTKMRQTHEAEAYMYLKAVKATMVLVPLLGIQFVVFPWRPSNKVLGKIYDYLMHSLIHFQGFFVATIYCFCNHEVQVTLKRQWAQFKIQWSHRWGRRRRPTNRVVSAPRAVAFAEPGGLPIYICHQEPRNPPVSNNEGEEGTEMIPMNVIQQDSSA

[3] = target: T3, human calcitonin receptor (human, UniProt P30988 25-474); assay: ratio of binding IC50s: human calcitonin receptor over human amylin receptor (reference)
T3 construct: whole, on cells; also called hCTR; hCT
T3 sequence (looked up): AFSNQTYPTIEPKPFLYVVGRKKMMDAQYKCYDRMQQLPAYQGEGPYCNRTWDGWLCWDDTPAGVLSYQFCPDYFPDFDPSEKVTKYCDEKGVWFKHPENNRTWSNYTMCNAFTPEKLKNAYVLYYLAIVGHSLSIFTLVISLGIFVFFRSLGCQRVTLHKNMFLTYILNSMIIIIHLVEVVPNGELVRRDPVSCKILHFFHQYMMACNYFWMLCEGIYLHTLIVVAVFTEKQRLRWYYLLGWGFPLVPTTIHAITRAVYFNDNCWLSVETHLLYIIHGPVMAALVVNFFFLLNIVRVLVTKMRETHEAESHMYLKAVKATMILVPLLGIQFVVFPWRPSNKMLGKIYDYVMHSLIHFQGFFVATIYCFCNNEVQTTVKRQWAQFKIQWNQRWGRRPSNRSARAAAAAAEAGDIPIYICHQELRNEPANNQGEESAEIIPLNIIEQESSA
In short: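 Scintillation proximity competition binding on cell membranes at 35 ng/μL with SPA beads, in 50 mM Hepes pH 7.4, 1 mM CaCl2, 5 mM MgCl₂, 0.1% OA, 0.02% Tween20. Incubated 120 min at 25° C with shaking. IC₅₀ from one-site competition fit.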

[4] = target: T2, rat calcitonin receptor; assay: SPA competition with 125I-calcitonin, membranes of BHK cells with rat calcitonin receptor (Assay VIII)

IC50 [1] [nM]	Ratio rCT/rAmylin binding [2]	Ratio hCT/hAmylin binding [3]	IC50 [4] [nM]	Binder
4.89	22.3	101	109	K([AEEA-γGlu-C20 diacid])CNTATCATQRLAKFLRHSSPNFGAIPSSTPVGSNTY-NH2 (disulfide 2-7; N-terminus assumed; SMILES CC[C@H](C)[C@H](NC(=O)[C@H](C)NC(=O)CNC(=O)[C@H](Cc1ccccc1)NC(=O)[C@H](CC(N)=O)NC(=O)[C@@H]1CCCN1C(=O)[C@H](CO)NC(=O)[C@H](CO)NC(=O)[C@H](Cc1c[nH]cn1)NC(=O)[C@H](CCCNC(=N)N)NC(=O)[C@H](CC(C)C)NC(=O)[C@H](Cc1ccccc1)NC(=O)[C@H](CCCCN)NC(=O)[C@H](C)NC(=O)[C@H](CC(C)C)NC(=O)[C@H](CCCNC(=N)N)NC(=O)[C@H](CCC(N)=O)NC(=O)[C@@H](NC(=O)[C@H](C)NC(=O)[C@@H]1CSSC[C@H](NC(=O)[C@@H](N)CCCCNC(=O)COCCOCCNC(=O)CC[C@H](NC(=O)CCCCCCCCCCCCCCCCCCC(=O)O)C(=O)O)C(=O)N[C@@H](CC(N)=O)C(=O)N[C@@H]([C@@H](C)O)C(=O)N[C@@H](C)C(=O)N[C@@H]([C@@H](C)O)C(=O)N1)[C@@H](C)O)C(=O)N1CCC[C@H]1C(=O)N[C@@H](CO)C(=O)N[C@@H](CO)C(=O)N[C@H](C(=O)N1CCC[C@H]1C(=O)N[C@H](C(=O)NCC(=O)N[C@@H](CO)C(=O)N[C@@H](CC(N)=O)C(=O)N[C@H](C(=O)N[C@@H](Cc1ccc(O)cc1)C(N)=O)[C@@H](C)O)C(C)C)[C@@H](C)O, synthetic analogue of human amylin; also called compound 74)
0.283	178	51.7	50.3	K([AEEA-γGlu-C20 diacid])CNTATCATQRLASFLRHSSPNFGAIPSSTPVGSNTY-NH2 (disulfide 2-7; N-terminus assumed; SMILES CC[C@H](C)[C@H](NC(=O)[C@H](C)NC(=O)CNC(=O)[C@H](Cc1ccccc1)NC(=O)[C@H](CC(N)=O)NC(=O)[C@@H]1CCCN1C(=O)[C@H](CO)NC(=O)[C@H](CO)NC(=O)[C@H](Cc1c[nH]cn1)NC(=O)[C@H](CCCNC(=N)N)NC(=O)[C@H](CC(C)C)NC(=O)[C@H](Cc1ccccc1)NC(=O)[C@H](CO)NC(=O)[C@H](C)NC(=O)[C@H](CC(C)C)NC(=O)[C@H](CCCNC(=N)N)NC(=O)[C@H](CCC(N)=O)NC(=O)[C@@H](NC(=O)[C@H](C)NC(=O)[C@@H]1CSSC[C@H](NC(=O)[C@@H](N)CCCCNC(=O)COCCOCCNC(=O)CC[C@H](NC(=O)CCCCCCCCCCCCCCCCCCC(=O)O)C(=O)O)C(=O)N[C@@H](CC(N)=O)C(=O)N[C@@H]([C@@H](C)O)C(=O)N[C@@H](C)C(=O)N[C@@H]([C@@H](C)O)C(=O)N1)[C@@H](C)O)C(=O)N1CCC[C@H]1C(=O)N[C@@H](CO)C(=O)N[C@@H](CO)C(=O)N[C@H](C(=O)N1CCC[C@H]1C(=O)N[C@H](C(=O)NCC(=O)N[C@@H](CO)C(=O)N[C@@H](CC(N)=O)C(=O)N[C@H](C(=O)N[C@@H](Cc1ccc(O)cc1)C(N)=O)[C@@H](C)O)C(C)C)[C@@H](C)O, synthetic analogue of human amylin; also called compound 73)
